Ends that are not written are not given here. cellulose = not defined here
T1: EG heterodimer (untagged subunit E with FLAG-tagged subunit G) (S. cerevisiae, UniProt P22203 1-233; P48836 1-114)
T1 construct: V-ATPase subunit E (Vma4p), S. cerevisiae, tagless; V-ATPase subunit G (Vma10p), S. cerevisiae; also called EG-FLAG; source: E. coli, co-expressed from one bicistronic plasmid, purified (amylose, PreScission cleavage of MBP, DEAE, amylose); not shown: MBP, N-terminal, cleaved; FLAG, N-terminal, kept
T1 sequence (looked up) 1: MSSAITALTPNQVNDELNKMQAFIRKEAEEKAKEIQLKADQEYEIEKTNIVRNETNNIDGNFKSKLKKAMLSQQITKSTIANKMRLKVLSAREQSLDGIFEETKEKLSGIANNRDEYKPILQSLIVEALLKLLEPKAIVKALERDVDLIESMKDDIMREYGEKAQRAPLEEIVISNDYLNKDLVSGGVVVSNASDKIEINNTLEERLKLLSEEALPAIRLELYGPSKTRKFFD
T1 sequence (looked up) 2: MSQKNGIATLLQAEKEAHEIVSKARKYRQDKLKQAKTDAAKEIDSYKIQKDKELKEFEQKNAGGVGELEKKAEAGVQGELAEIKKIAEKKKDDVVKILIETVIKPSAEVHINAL

T2: full-length subunit H (Vma13p), N-terminal MBP fusion (S. cerevisiae, UniProt P41807 1-478)
T2 construct: V-ATPase subunit H (Vma13p), S. cerevisiae, 478 amino acids; Construct provided by the laboratory of Dr. Patricia Kane; also called MBP-H; source: E. coli, purified (amylose column; ultrafiltration or size exclusion chromatography); not shown: MBP, N-terminal, kept
T2 sequence (looked up): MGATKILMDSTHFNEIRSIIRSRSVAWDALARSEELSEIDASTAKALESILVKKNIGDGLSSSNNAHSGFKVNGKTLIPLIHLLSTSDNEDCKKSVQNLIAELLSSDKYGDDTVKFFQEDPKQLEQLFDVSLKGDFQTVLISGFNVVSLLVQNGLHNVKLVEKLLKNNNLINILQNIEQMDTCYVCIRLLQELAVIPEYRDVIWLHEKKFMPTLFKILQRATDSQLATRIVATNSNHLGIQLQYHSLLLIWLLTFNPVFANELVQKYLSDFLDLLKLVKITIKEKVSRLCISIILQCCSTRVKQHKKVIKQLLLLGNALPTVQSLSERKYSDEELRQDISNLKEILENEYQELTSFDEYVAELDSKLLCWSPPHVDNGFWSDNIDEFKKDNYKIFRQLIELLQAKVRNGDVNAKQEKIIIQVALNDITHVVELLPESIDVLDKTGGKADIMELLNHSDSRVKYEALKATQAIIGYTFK

T3: subunit E (Vma4p), N-terminal MBP fusion (S. cerevisiae, UniProt P22203 1-233)
T3 construct: V-ATPase subunit E (Vma4p), S. cerevisiae, 233 amino acids; also called MBP-E; source: E. coli, purified (amylose column); not shown: MBP, N-terminal, kept
T3 sequence (looked up): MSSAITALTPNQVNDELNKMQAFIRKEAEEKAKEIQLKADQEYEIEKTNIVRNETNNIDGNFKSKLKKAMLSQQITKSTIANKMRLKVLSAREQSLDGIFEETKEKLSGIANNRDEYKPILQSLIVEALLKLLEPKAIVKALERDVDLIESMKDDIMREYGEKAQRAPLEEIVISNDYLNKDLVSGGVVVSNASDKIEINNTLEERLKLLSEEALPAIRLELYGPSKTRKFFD

T4: subunit G (Vma10p) with FLAG tag (S. cerevisiae, UniProt P48836 1-114)
T4 construct: V-ATPase subunit G (Vma10p), S. cerevisiae, 114 amino acids; also called G-FLAG; FLAG-G; source: E. coli, from the bicistronic MBP-FLAG-G / E construct, purified (amylose, PreScission cleavage of MBP, DEAE, amylose); not shown: MBP, N-terminal, cleaved
T4 sequence (looked up): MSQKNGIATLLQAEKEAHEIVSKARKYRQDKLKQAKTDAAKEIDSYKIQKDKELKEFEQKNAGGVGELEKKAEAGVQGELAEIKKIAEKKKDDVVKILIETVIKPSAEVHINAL

T5: C-terminal domain of subunit H (HCT), N-terminal MBP fusion (S. cerevisiae, UniProt P41807 353-478)
T5 construct: V-ATPase subunit H (Vma13p), S. cerevisiae, C-terminal globular domain 353-478 (126 amino acids); Construct provided by the laboratory of Dr. Patricia Kane; also called MBP-HCT; source: E. coli, purified (amylose column; ultrafiltration or size exclusion chromatography); not shown: MBP, N-terminal, kept
T5 sequence (looked up): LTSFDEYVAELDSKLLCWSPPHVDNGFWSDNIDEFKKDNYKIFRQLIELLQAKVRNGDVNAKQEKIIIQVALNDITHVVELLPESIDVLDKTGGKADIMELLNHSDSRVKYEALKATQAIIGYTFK


Experiments:
Experiment in all cases: peptide or protein array; 20-mer peptides linked at their C-terminal end to cellulose and spotted in duplicate on glass slides; blocked in 2% nonfat milk; purified probe at 4 µM in TBS for 1 hour at 4°C; bound probe detected through MBP or FLAG with HRP-coupled antibody (chemiluminescence); hits by ANOVA (p 0.05, Bonferroni) and HCL in MeV, score of at least 1 in 75% of the spots
Conditions in all cases: both partners purified
[1] = target: T1, EG heterodimer (untagged subunit E with …)
[2] = target: T2, full-length subunit H (Vma13p), …
[3] = target: T3, subunit E (Vma4p), N-terminal MBP fusion
[4] = target: T4, subunit G (Vma10p) with FLAG tag
[5] = target: T5, C-terminal domain of subunit H (HCT), …

| Binder | binding result [2] | binding result [3] | other results |
| --- | --- | --- | --- |
| TSTTLESELYAIAKELDSWF-cellulose (peptide, UniProt P32563 291-310, looked up, reading uncertain, source: synthetic peptide, spotted on glass slide array (Intavis)) [a(291-310)] | – | – | binding result [1]: binds |
| LTGYITEGQIFVDRQLHNKG-cellulose (peptide, UniProt P16140 349-368, looked up, reading uncertain, source: synthetic peptide, spotted on glass slide array (Intavis)) [B(349-368)] | binds | – | binding result [4]: binds |
| RNGLLSNNQYINLTQCDTLE-cellulose (peptide, UniProt P32366 21-40, looked up, reading uncertain, V-ATPase Vo subunit d, S. cerevisiae, residues 21-40; source: synthetic peptide, spotted on glass slide array (Intavis)) [d(21-40)] | binds | binds | – |
| EVIKVTNRRVNAIEHVIIPR-cellulose (peptide, UniProt P32610 161-180, looked up, reading uncertain, source: synthetic peptide, spotted on glass slide array (Intavis)) [D(161-180)] | – | – | binding result [4]: binds |
| DTCYVCIRLLQELAVIPEYR-cellulose (peptide, UniProt P41807 181-200, looked up, cysteine pairing not given here; reading uncertain, source: synthetic peptide, spotted on glass slide array (Intavis)) [H(181-200)] | – | – | binding result [1]: binds |
| DCKKSVQNLIAELLSSDKYG-cellulose (peptide, UniProt P41807 91-110, looked up, reading uncertain, V-ATPase subunit H (Vma13p), S. cerevisiae, residues 91-110; source: synthetic peptide, spotted on glass slide array (Intavis)) [H(91-110)] | – | – | binding result [1]: binds |
| ATDSQLATRIVATNSNHLGI-cellulose (peptide, UniProt P41807 221-240, looked up, reading uncertain, source: synthetic peptide, spotted on glass slide array (Intavis)) [H(221-240)] | – | – | binding result [4]: binds; binding result [5]: binds |
| VRNETNNIDGNFKSKLKKAM-cellulose (peptide, UniProt P22203 51-70, looked up, reading uncertain, V-ATPase subunit E (Vma4p), S. cerevisiae, residues 51-70; source: synthetic peptide, spotted on glass slide array (Intavis)) [E(51-70)] | – | – | binding result [1]: binds |
| FFLKGDNTDSTSYMDEDMID-cellulose (peptide, UniProt P32563 151-170, looked up, reading uncertain, source: synthetic peptide, spotted on glass slide array (Intavis)) [a(151-170)] | – | binds | – |
| TENTIAYINSELDELDREEF-cellulose (peptide, UniProt P32610 181-200, looked up, reading uncertain, source: synthetic peptide, spotted on glass slide array (Intavis)) [D(181-200)] | – | binds | – |
| AWHGTENALLFSNSYKMKLS-cellulose (peptide, UniProt P32563 521-540, looked up, reading uncertain, source: synthetic peptide, spotted on glass slide array (Intavis)) [a(521-540)] | – | – | binding result [5]: binds |
| YGNFLSSVSSESLTTSLIQE-cellulose (peptide, UniProt P32366 51-70, looked up, reading uncertain, V-ATPase Vo subunit d, S. cerevisiae, residues 51-70; source: synthetic peptide, spotted on glass slide array (Intavis)) [d(51-70)] | binds | binds | – |
| RNKLYKAYLEDFYNFVTEEI-cellulose (peptide, UniProt P32366 181-200, looked up, reading uncertain, source: synthetic peptide, spotted on glass slide array (Intavis)) [d(181-200)] | – | binds | – |
| IEVQKNDLEQYRFILQSGDE-cellulose (peptide, UniProt P32563 131-150, looked up, reading uncertain, source: synthetic peptide, spotted on glass slide array (Intavis)) [a(131-150)] | – | binds | – |
| LDTNHTPPTFHRTNKFTAGF-cellulose (peptide, UniProt P32563 371-390, looked up, reading uncertain, source: synthetic peptide, spotted on glass slide array (Intavis)) [a(371-390)] | – | – | binding result [4]: binds; binding result [5]: binds |
| FRDLNSKVRAFQRTFVNEIR-cellulose (peptide, UniProt P32563 41-60, looked up, reading uncertain, V-ATPase Vo subunit a (gene Vph1), S. cerevisiae, residues 41-60; source: synthetic peptide, spotted on glass slide array (Intavis)) [a(41-60)] | binds | – | binding result [5]: binds |
| ILEIPSKDHPYDPEKDSVLK-cellulose (peptide, UniProt P39111 91-110, looked up, reading uncertain, V-ATPase subunit F, S. cerevisiae, residues 91-110; source: synthetic peptide, spotted on glass slide array (Intavis)) [F(91-110)] | binds | – | binding result [4]: binds; binding result [1]: binds |
| KAEAGVQGELAEIKKIAEKK-cellulose (peptide, UniProt P48836 71-90, looked up, reading uncertain, V-ATPase subunit G (Vma10p), S. cerevisiae, residues 71-90; source: synthetic peptide, spotted on glass slide array (Intavis)) [G(71-90)] | binds | binds | – |
| SDEELRQDISNLKEILENEY-cellulose (peptide, UniProt P41807 331-350, looked up, reading uncertain, V-ATPase subunit H (Vma13p), S. cerevisiae; source: synthetic peptide, spotted on glass slide array (Intavis)) [H(331)] | – | binds | – |

Further lines, with some results ahead:

| binding result [2] | binding result [3] | Binder | other results |
| --- | --- | --- | --- |
| binds | binds | QEGKTTKEEITDKFNHFTEE-cellulose (peptide, UniProt P39111 41-60, looked up, reading uncertain, V-ATPase subunit F, S. cerevisiae, residues 41-60; source: synthetic peptide, spotted on glass slide array (Intavis)) [F(41-60)] | – |
| – | binds | DFEGVRAALANVYEYRGFLE-cellulose (peptide, UniProt P32366 261-280, looked up, reading uncertain, source: synthetic peptide, spotted on glass slide array (Intavis)) [d(261-280)] | – |
| binds | – | FLDLLKLVKITIKEKVSRLC-cellulose (peptide, UniProt P41807 271-290, looked up, reading uncertain, source: synthetic peptide, spotted on glass slide array (Intavis)) [H(271-290)] | binding result [4]: binds |
| – | binds | EAQQLISAMDADDAEEEEVG-cellulose (peptide, UniProt P32563 681-700, looked up, reading uncertain, source: synthetic peptide, spotted on glass slide array (Intavis)) [a(681-700)] | – |
| binds | – | FQRTFVNEIRRLDNVERQYR-cellulose (peptide, UniProt P32563 51-70, looked up, reading uncertain, V-ATPase Vo subunit a (gene Vph1), S. cerevisiae, residues 51-70; source: synthetic peptide, spotted on glass slide array (Intavis)) [a(51-70)] | binding result [5]: binds |
| – | binds | GEEALSIEDKLSLEFLEKFE-cellulose (peptide, UniProt P16140 421-440, looked up, reading uncertain, V-ATPase subunit B, S. cerevisiae; source: synthetic peptide, spotted on glass slide array (Intavis)) [B(421)] | – |
| – | binds | LSDLYTVLKTTSTTLESELY-cellulose (peptide, UniProt P32563 281-300, looked up, reading uncertain, source: synthetic peptide, spotted on glass slide array (Intavis)) [a(281-300)] | binding result [1]: binds |
| binds | – | LPPHFNIKIIAVPPKNLSKC-cellulose (peptide, UniProt P31412 321-340, looked up, reading uncertain, source: synthetic peptide, spotted on glass slide array (Intavis)) [C(321-340)] | binding result [5]: binds |
| binds | binds | GWFDTLPTLSVATDLESLYE-cellulose (peptide, UniProt P32366 131-150, looked up, reading uncertain, source: synthetic peptide, spotted on glass slide array (Intavis)) [d(131-150)] | – |

Reference: PMC3470569, “Probing Subunit-Subunit Interactions in the Yeast Vacuolar ATPase by Peptide Arrays” (PLoS ONE, 2012)
